Source: the RNAGym collection of RNA variant scans (doi:10.1073/pnas.2313332121)

B1: TPR t1 (parent)
chain: GACCAAUCUGCCCUCAGAGCUCGAGAACAUCUUCGGAUGCAGAGGAGGCAGGCUUCGGUGGCGCGAUAGCGCCAACGUCCUCAACCUCCAAUGCAUCCCACCACAUGAUGAUGCCUGAAGAGCCUUGGUUUUUUG

Variants of: B1
Test: polymerase ribozyme fitness, log enrichment relative to wild type (log ratio); higher = more active; in vitro selection for triplet polymerase activity
In short: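 Mutant libraries for each subunit of a heterodimeric triplet polymerase ribozyme were made by PCR and then transcribed. Each library underwent one round of in vitro selection in triplicate: annealing with a biotinylated primer, the partner subunit and triplets, frozen incubation at −7 °C, gel excision of extended constructs, streptavidin-bead capture and RT-PCR. Input and output libraries were Illumina-sequenced, and only genotypes with ≥10 input reads and ≥1 read per output were kept. Fitness is the logarithm, base 2, of genotype enrichment over wild-type enrichment, computed from inverse-variance-weighted replicate averages.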

| Variant | polymerase ribozyme fitness (log ratio) |
| --- | --- |
| GACCAAUCUGCCGUCAGAGCUCGAGAACAUCUUCGGAUGCAGAGGAGGCAGGCUUCGGUGGCGCGAUAGCGUCAACGUCCUCAACCUCCAAUGCAUCCCACCACAUGAUGAUGCCUGAAGAGCCUUGGUUUUUUG [C13G C72U] | -1.8 |
| GACCAAUCUGCCGUCAGAGCUCGAGAACAUCUUCGGAUGCAGAGGAGGCAGGCUUCGGUGGCGCGAUAGCGCCAACGUCCUCAACCUCCAAUGCAUCCCACCAUAUGAUGAUGCCUGAAGAGACGUGGUUUUUUG [C13G C104U C123A U125G] | 0.46 |
| GACCAAUCUGCCGUCAGAGCUCGAGAACAUCUUCGGAUGCAGAGGAGGCAGGCUUCGGUGGCGCGAUAGCGCCAACGUCCUCAACGUCCCAUGCGUCCCACCACAUGAUGAUGCCUGAAGAGCCUUGGUUUUUUG [C13G C86G A90C A95G] | -4.51 |
| GACCAAUCUGCCGUCAGAGCUCGAGAACAUCUUCGGAUGCAGAGGAGGCAGGGUUCGGUGGCGCGAUAGCGCCAACGUCCUCAACCUCCAAUGCAUCCCACCACAUGAUGAUGCAUGAAGAGCCUUGGUUUUUUG [C13G C53G C115A] | -1.47 |
| GACCAAUCUGCCGUCAGAGCUCGAGAACAUCUUCGGAUGGAGAGGAGGCAGGCUUCGGUGGCGCGAUAGCGCCAACGUCCUCAACCUCCAAUGCAUCCCACCACAUGAUGAUGCCUGAAGAGGCUUGGUUUUUUG [C13G C40G C123G] | -0.377 |
| GACCAAUCUGCCGUCAGAGCUCGAGAACAUCUUCGGAUGCAGAGGAGGCUGGCUUCGGUGUCGCGAUAGCGCCAACGUCCUCAACCUCCAAUGCAUCCCACCACAUGAUGAUGCCUGAAGAGCCUUGGUUUUUUG [C13G A50U G61U] | -3.51 |
| GACCAAUCUGCCGUCAGAGCUCGAGAACAUCUUCGGAUGCAGAGGAGGCAGGCUUCGGUGGGGCGAUAGCGCCAACGUCCUCAACCUCCAAUGCAUCCCACCACAUGAUGAUGCCUCAAGAGCCUUGGUUUUUUG [C13G C62G G117C] | -8.19 |
| GACCAAUCUGCCGUCAGAGCUCGAGAACAUCUUCGGAUGAAGAGGAGGCAGGCUUCGGUGGCCCGAUAGCGCCAACGUCCUCAACCUCCAAUGCAUCCCACCACAUGAUGAUGCCUUAAGAGCCUUGGUUUUGUG [C13G C40A G63C G117U U133G] | -6.59 |
| GACCAAUCUGCCGUCAGAGCUCGAGAACAUCUUCGGAUGCAGAGGAGGCAGGCUUCGGUGGCGCGAUAGCGCCAACGUCCUCAACCUCCAAUGCAUCCCACCACAUGGUGAUGCCUGAAGAGCCUUGGUUUUUUG [C13G A108G] | -3.4 |
| GACCAAUCUGCCGUCAGAGCUCGAGAACAUCUUCGGAUGCAGAGGAGGCAGGCUUCGGUGGCGCGAUAGCGCCAACGUCCUCCACCUCCAAUGCAUCCCACCACAUGAUGAUGCCUGAAGGGCCUUGGUUUUUUG [C13G A83C A121G] | 1.65 |
| GACCAAUCUGCCGUCAGAGCUCGAGAACAUCUUCGGAUGCAGAGGAGGCAGGCUUCGGUGGCGCGAUAGCGCCAACGUCCUCAACCUCCAAUGCAUCCCACCACAUGAUGAUGUCUGAAGAGCCUUGGUUUUUUG [C13G C114U] | -2.83 |
| GACCAAUCUGCCGUCAGAGCUCGAGAACAUCUUCGGAUGCAGAGGAGGCAGGCUUCGGUGGCGCGAUAGCGCCAACGUCCUCAACCUCCAAUGCAUCCCACCACAUGAUGAUGCCUGAAGAGCAUUGGUUUUUUG [C13G C124A] | 1.06 |
| GACCAAUCUGCCGUCAGAGCUCGAGAACAUCUUCGGAUGCAGAGGAGGCAGGCUUCGGUGGCGCGAUAGCGCCAACGUCCUCAACCUCCAAUGCAUCCCACCACAUGAUGAUGCCUGAAGAGCGUUGGUUUUUUG [C13G C124G] | 0.288 |
| GACCAAUCUGCCGUAAGAGCUCGAGAACAUCUUCGGAUGCAGAGGAGGCAGGCUUCGGUGGCGCGAUAGCGCCAACGUCCUCAACCUCCAAUGCAUCCCACCACAAGAUGAUGCCUGAAGAGACUUGGUUUUUUG [C13G C15A U106A C123A] | -1.05 |
| GACCAAUCUGCCGUCAGAGCUCGAGAACAUCUUCGGAUGCAGAGGAGGCAGGCUUCGGUGGCGCGAUAGCGCCAACGUCCUCAAUCUCCAAUGCAUCCCACCACAUGAUGAUGCCUGAAGAGCCUUGGUUUUUUG [C13G C85U] | -2.91 |
| GACCAAUCUGCCGUCAGAGCUCGAGAACAUCUUCGGAUGUAGAGGACGCAGGCUUCGGUGGUGCGAUAGCGCCAACGACCUCAACCUCCAAUGCAUCCCACCACAUGAUGAUGCCUGAAGAGCCUUGGUUUUUUG [C13G C40U G47C C62U U78A] | -3.84 |
| GACCAAUCUGCCGUAAGCGCUCGAGAACAUCUUCGGAUGCAGAGGAGGCAGGCUUCGGUGGCGCGAUAGCGCCAACGUUCUCAACCUCCAAUGCAUCCCACCACAUGAUGAUGCCUGAAUAGCCUUGGUUUUUUG [C13G C15A A18C C79U G120U] | -2.11 |
| GACCAAUCUGCCGUCAGAGCUCGAGAACAUCUUCGGAUGCAGAGGAGGCAGGCUUCGGUGGCGCGAUAGCGCCAACGUCCUCAACCUCCAAUGCAUCCCACCAUAUGAUGAUGCCUGAAGAGCCUUGGUUUUUUG [C13G C104U] | -0.77 |
| GACCAAUCUGCCGUCAGAGCUCGAGAACAUCUUCGGAUGCAGAGGAGGCAGGCUUCGGUGGCGCGAUAGCGCCAACGUCCUCUACCUCCAAUGCCUCCCACCACAUGAUAAUGCCUGAAUAGCCUUGGUUUUUUG [C13G A83U A95C G110A G120U] | -3.42 |
| GACCAAUCUGCCGUCAGAGCUCGAGAACAUCUUCGGAUGCAGAGGAGGCAGGCUUCGGUGGCGCGAUAGCGCCAACGUCCUCAACCUCCAAUGCAUCUCACCACAUGAUGAUGCCUGAAGAGCCUUGGUUUUUUG [C13G C98U] | -2.7 |
| GACCAAUCUGCCGUCAGAGCUCGAGAACAUCUUCGGAUGCAGAGGAGGCAGGAUUCGGUGGCGCGAUAGCGCCAACGUCCUCAACCUCCAAUGCAUCCCACCACAUGAUGAUGCCUGAAGAGCCUUGGUUUUUUG [C13G C53A] | -1.86 |

| Variant | polymerase ribozyme fitness (log ratio) |
| --- | --- |
| GACCAAUCUGCCGUCAGAGCUCGAGAACAUCUUCGGAUGCAGAGGAGGCAGGCUUCGGUGGCGCGUUAGCGCCAACGUCCUCAACCUCCAAUGCAUCCCACCACAUGAUGAUGCCUGAAGAGCCUUGGUUUUUUG [C13G A66U] | -2.18 |
| GACCAAUCUGCCGUCAGAGCUCGAGAACAUCUUCGGAUGCAGAGGAGGCAGGCUUAGGUGGCGCGAUAGCGCCGACGUCCUCAACCUCCAAUGCAUCCCAGCACAUGAUGACGCCUGAAGAGCCUUGGUAUUUUG [C13G C56A A74G C101G U112C U130A] | -3.67 |
| GACCAAUCUGCCGUCAGAGCUCGAGAACAUCUUGGGAUGCAGAGGAGGCAGGCUUCGGUGGCGCGAUAGCGCCAACGUCCUCAACCUCCAAUGCAUCCCACCACAUGAUGAUGCCUGAAGAGCCUUGGUUUUUUG [C13G C34G] | -5.23 |
| GACCAAUCUGCCGUCAGAGCUCGAGAACAUCUUCGGAUGCAGAGGAGGCAGGCUUCGGUGGCGCGAUAGCGCCAACGUCCUCAACCUCCAAUGCAUCCCACCACAUGAUGAUGCCUGAUGAGCCUUGGUUUUUUG [C13G A119U] | 0.114 |
| GACCAAUCUGCCGUCAGAGCUCGAGAACAUCUUCGGAUGCAGAGGAGGCAGGCUUCGGUGGCGCGAUAGCGCUAACGCCCUCAACCUCCAAUGCAUCCCACCACAUGAUGAUGCCUGAAGCGCCUUGGUUUUUUG [C13G C73U U78C A121C] | -0.0893 |
| GACCAAUCUGCCGUCAGAGCUAGAGAACAUCUUCGGAUGCAGAGUAGGCAGGCUUCGGUGGCGCGAUAGCGCCAACAUCCUCAACCUCCAAUGCAUCCCACCACAUGAUGUUGCCUGAAGAGCCUUGGUUUUUUG [C13G C22A G45U G77A A111U] | -6.13 |
| GACCAAUCUGCCGUCAGAGCUCGAGAACAUCUUCGGAUGCAGAGGAGGGAGGCUUCGGUGGCGCGAUAGCGCCAACGUCCUCAACCUCCAAUGCAUCCCACCACAUGAUGAUGCCUGAAGAGCCUUGGUUUUUUG [C13G C49G] | -2.28 |
| GACCAAUCUGCCGUCAGAGCUCGAGAACAUCUUCGGAUGCAGAGGAGGCAGGCUUCGGUGGCGCGAUAGCGCCAACGUCCUCAACCUCCAAUGCAUCCCACCACAUGAUGAUGCCUGAAGAGCGUAGGUUAUUUG [C13G C124G U126A U131A] | -0.0429 |
| GACCAAUCUGCCGUCAGAGCUCGAGAACAUCUUCGGAUGCAGAGGAGGCGGGCUUCGGUGGCGCGAUAGCACCAACGUCCUCAACCUCCAAUGCAUCCCACCACAAGAUGAUGCCUGAAGAGCAUUUGUUUUUUG [C13G A50G G71A U106A C124A G127U] | -0.731 |
| GACCAAUCUGCCGUCAGAGCUCGAGAACAUCUUCGGAUGCAGAGGAGGCAGGCUUCGGUGGCGUGAUAGCGCCAACGUCCUCAACCUCCAAUGCAUCCCACCACAUGAUGAUGCCUGAAGAGCCUUGGUUUUUUG [C13G C64U] | -0.666 |
| GACCAAUCUGCCGUCAGAGCUCGAGAACAUCUUCGGAUGCAGAGGAGGCAGGCUUCGGUGGCGCGAUAGCGCCAACGUCCUCAACCUCCAAUGCAUCCCAACACAUGAUGAUGCCUGAAGAGCCUUGGUUUUUUG [C13G C101A] | -2.61 |
| GACCAAUCUGCCGUCAUAGCUCGAGAACAUCUUCGGAUGCAGAGGAGGCAGGCUUCGGUGGCGUGAUAGCGCCAACGUCCUCAACCUCCAAUCCAUCCCACCACAUGAUGAUGCCUGAAGAGCCUUGGUUUUUUG [C13G G17U C64U G93C] | -4.19 |
| GACCAAUCUGCCGUCAGAGCUCGAGAACAUCUUCGGAUGCAGAGGAGGCAGGCUUAGGUGGCGCGAUAGCGCCAACGUCCUCAACCUCCAAUGCAUCCCACCACAUGAUGAUGCCUGAAGAGCCUUGGUUUUUUG [C13G C56A] | -1.9 |
| GACCAAUCUGCCGUCAGAGCUCGAGAAGAUCUUCGGAUGCACAGGAGGCAGGCUUCGGUGGCGCGAUAGCGCCAACGUCCUCAACCUCCAAUGCAUCCCACCACAUGAUGAUGCCUGAAGAGCCUUGGUUUUUUG [C13G C28G G42C] | -6.24 |
| GACCAAUCUGCCGUCAGAGCUCGAGAACAUCUUCGGAUGCAGAGGAGGCAGGCUUCGGUGGCGCGAUAGCGCCAACGUCCUCAACCUACAAUGCAUCCCACCACAUGAUGAUGCCUGAAGAGCCUUGGUGUUUUG [C13G C88A U130G] | -3.24 |
| GACCAAUCUGCCGUCAGAGCUCGAGAACAUCUUCGGAUGCAGAGGAGGCAGGCUUCGGUGGUGCGAUAGCGCCAACGUCCUCAACCUCCAAUGCAUCCCCCCACAUGAUGACGCCUGAAGAGCCUUGGUUUUUUG [C13G C62U A100C U112C] | -1.47 |
| GACCAAUCUGCCGUCAGAGCUCGAGAACAUCUUCGGAUGCAGAGGAGGCAGGCUUCGGUGGCGCGAUAGCGCCAACGUCCUAAACCUCCAAUGCAUCCCACAACAUGAUGAUGCCUGAAGAGCCUUGGUGUUUUG [C13G C82A C102A U130G] | -4.93 |
| GACCAAUCUGCCGUCAGAGCUCGAGAACAUCUUCGGAUGCAGAGGAGGCAGGCUUCGGUGGCGCGAUAGCGCCAACGUCCUCAACCUCCAAUGCAUCCCACCAAAUGAUUAUGCCUGAAGAGCCUUGGUUUUUUG [C13G C104A G110U] | -6.08 |
| GACCAAUCUGCCGUCAGAGCUCGAGAACAUCUUCGGAUGCAGAGGAGGCAGGCUUCGGUGGCGCGAUAGCGCCAACGUCCUCAACCUCCUAUGCAUCCCACCACAUGAUGAUGCCUGAAGAGCUUUGGCUUUUUG [C13G A90U C124U U129C] | -3.28 |
| GACCAAUCUGCCGUCAGAGCUCGAGAACAUCUUCGGAUGCAGAGGAGGCAGGGUUCGGUGGCACGAUAGCGCCAACGUCCUCAACCUCCAAUGCAUCCCACCACAUGAUGAUGCCUGAAGAGCCUUGGUUUUUUG [C13G C53G G63A] | -2.67 |
| GACCAAUCUGCCGUCAGAGCUCUAGAACCUCUUCGGAUGCAGAGGAGGCAGGCUUCGGUGGCGCGAUAACGCCAACGUCCUCAACCUCCAAUGCAUACCACCACAUGAUGAGGCCUGAAGAGCCUGGGUUUUUUG [C13G G23U A29C G69A C97A U112G U126G] | -6.55 |
